Source: PMC10308189 (Bio-protocol, 2023)

Biological target: the molecule itself
Test: SEC

B1: human amphiphysin 1 N-BAR domain (1-247) (domain or fragment, UniProt P49418 1-247, looked up)
chain: MADIKTGIFAKNVQKRLNRAQEKVLQKLGKADETKDEQFEEYVQNFKRQEAEGTRLQRELRGYLAAIKGMQEASMKLTESLHEVYEPDWYGREDVKMVGEKCDVLWEDFHQKLVDGSLLTLDTYLGQFPDIKNRIAKRSRKLVDYDSARHHLEALQSSKRKDESRISKAEEEFQKAQKVFEEFNVDLQEELPSLWSRRVGFYVNTFKNVSSLEAKFHKEIAVLCHKLYEVMTKLGDQHADKAFTIQG
- stoichiometry N: 2
